Measurements from the nanobody polyreactivity screen of Harvey et al. (2022).

experiment: yeast display, Sf9 membrane polyspecificity reagent, FACS + sequencing; frameworks hold sequencing errors
Outline: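 Genes from sorted yeast were amplified by colony PCR, read by MiSeq 2 × 250 sequencing and filtered on CDR length. These cells carried a synthetic nanobody library in Saccharomyces cerevisiae BJ5465 and were sorted by FACS into low and high (top ~1%) gates on anti-HA and streptavidin fluorescence. Polyreactivity is labelled according to the gate of origin.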

Sequence | polyreactivity (PSR sort gate)
QVQLVESGGGLVQAGGSLRLSGAASGSSFLRNAMGWSRQAPGKERELVATISTGSGRTYYADSVKGRFTISRDNAKNTVYLQMTSLKPEDTAVYYCAASRTLRKHRYEYWGQGTKVTVSS | high polyreactivity
QVQLVESGGGLVQAGGSLRLSGAASGSTFRYYVMGWYRQAPGKERELVAGISYRGGTTYYADSVKGRFTISRDNAKNTVYLQMISLKPEDTAVYYCNAETAAAQASFDRLYVLLDYWGQGTQVTVSS | low polyreactivity
QVQLVESGGGLVQAGGSLRLSGAASGSTFYPNAMGRYRQAPGKERELVAAISGRGGRTYYADSVKGRFTISRDFAKNTVYLQINSLKPEDTAVYYCNIVRASDHYDYWGQGTQVTVSS | high polyreactivity
QVQLVESGGGLVQAGGSLRLSGAATGSIIHPYAMGWYRQAPGKERELLAAISKSGGNTYYADSVKGRITISRDNAKNTVYLQMNSLKPEDTAVYYCAALDYWGQGTQVTVSS | low polyreactivity
QVQLVESGGGLVQAGGSLRLSGDASGYIFVRYAMGWYRQAPGQARELVAAINSSGGRTYYADSVKGRFTISRDNAKNTVYLQMNSLKPEDTAVYYCAAYAYYRSGYRALEGYWGQGTQVTVSS | high polyreactivity
QVQLVESGGGLVQAGGSLRLSRAASGFTITYNAKGWSRPAPGKESELVAAITGDGGSTYYADSVKGRFTISRDNAKNTVYLQMNSLKPEDTAVYYCAAYVVWGGTDGRYDYWGQGTQVTVSS | low polyreactivity
QVQLVESGGGLVQAGGSLRLSRAASGGSLRLYAMRWYRQAHGKERELVSAINDRSGSTYYADSVKGRFTISRDNAKNTVYLKLNRLKPEDTAVYYCYAYGTPPGSDGQYDYWGQGTQVTVSS | high polyreactivity
QVQLVESGGGLVQAGGSLRLSRAASGITFGFKAMGWYRQAPGKERELVAAITWSVGRTYYADSVKGRFTISRDNAKNTVYLQMNSLKPEDTAVYYCAKDFEAGDDYFAYDYWGQGTQVTVSS | low polyreactivity
QVQLVESGGGLVQAGGSLRLSRAASGRTFYFNAMGWYRQAPGKERELVAGISGDGSTNYADSVKGRFTISRDNAKNTVYLQMNSLKPEDTAVYYCAKTLGSQNYDFDYWGQGTQVTVSS | low polyreactivity
QVQLVESGGGLVQAGGSLRLSRAGCGRIFFVYAMRWYRQAPGKERELVAALSVSDVSTSYADSVKGRFTISRDNAKNTVFLQMNSLKPEDTAVYYCLAAFRFYASSRIAGEDYWGQGTQVTVSS | low polyreactivity
QVQLVESGGGLVQAGGSLRLSRASSGVISYRNAMGWYRKAPGKERQLVASITSSGGRTYYADSVKGRFTISRDYATNSVFLQMNSLKPEDTAVYYCADDNWYKKLKRPSAYDYWGQGTQVTVSS | high polyreactivity
QVQLVESGGGLVQAGGSLRLSSAASGFIFDGNAMGWYRQAPGKERELVAAIRSGGRTNYADSVKGRFTISRDNAKNTVYLQMNSLKPEDTAVYYCAARSIYPYYYRRDNRYYYWGQGTQVTVSS | high polyreactivity
QVQLVESGGGLVQAGGSLRLSSAASGFIFPVYTMGWYRQAPGTERELLAAITQIGGSTHYADSVKGRFTISRDNAKNTVYLQMNSLKPVDTAVYYFNAVPSYGTEYDYWGQGTQVTVSS | low polyreactivity
QVQLVESGGGLVQAGGSLRLSSAASGFIFRTYAMGRYRQAHGKESQLVAAISGTTGSKYYADSVKGRFTISRDNAKNTVYLQMNSLKPEDTAVYYCAADFYWYIRYDYWGQGTQVTVSS | low polyreactivity
QVQLVESGGGLVQAGGSLRLSSAASGFIIVFYAMGWYRQAPGKERELVAAITWSGGGTYYADSVKGRCTISRDNAKNTVYLQMNSLKPEDTAVYYCNAEEPQYYYVLDKLYDFWGQGTQVTVSS | low polyreactivity
QVQLVESGGGLVQAGGSLRLSSAASGFILDTNAMGWYRQAPGKERELVSAITKRGIRTYYADSVKGRFTISRDNAQNTVYLQMNSLKPEDTAVYYCNAQRPIATVWHRYDSWGQGTQVTVSS | high polyreactivity
QVQLVESGGGLVQAGGSLRLSSAASGFTFSQYAMGWYRQAPGKERELVAAISVSGGTTYYADSVKGRFTISRDNAKNTVYLQMNSLKPEDTAVYYCAARTPYSRSPYVNTSGYYYWGQGTQVTVSS | high polyreactivity
QVQLVESGGGLVQAGGSLRLSSAASGFTFWSKAMGWYRQAPGKERELVAAISRGGSTYYADSVKGRFTITRDNAKNTVYLQMNSLKPEDTAVYYCAAVRLSRVYYWGQGTQVTVSS | high polyreactivity
QVQLVESGGGLVQAGGSLRLSSAASGFTFYRNPMGWYRQAPGKERELVAAITRSGTSTYYADSVKGRFTISRDNAKNSVYLQKNSLKPEDTAVYYCNTVGYRGRSNSRFYYWGQGTQVTVSS | high polyreactivity
QVQLVESGGGLVQAGGSLRLSSAASGGTFTKNAMGWYRQAPGKERELVAAISWRGTSTYYADSVKGRFSISRDNAKNTVYLQMNSLKPDDTAVYFCLPWVGYGRYKPGYKYDYWGQGTQVTVSS | high polyreactivity
QVQLVESGGGLVQAGGSLRLSSAASGIIFGVYGMGWYRPAPGKERELVASIRYSSVRTYYADSVKGRFTISRDNAKNTVYLQMNSLKPEDTAVYYCAKYYVWPSYGYWGQGTQVTVSS | high polyreactivity
QVQLVESGGGLVQAGGSLRLSSAASGIIFKSYAMGWYRPAPGKERELVSAISGGGDTYYAYSVKGRFTISRDNAKNTVNLQMNSLKPEDTAVYYCNTDGSQGTIIAIFVKYDYWGQGTQVTVSS | low polyreactivity

Sequence | polyreactivity (PSR sort gate)
QVQLVESGGGLVQAGGSLRLSSAASGIIFRVYTMGWYLQAPGKERELVAKISLGGARTYYADSVKGRFTISRDNAKNTVYLQMNSLKPEDTAVYYCNARSRWTAKFDYWGQGTQVTVSS | high polyreactivity
QVQLVESGGGLVQAGGSLRLSSAASGITFDDYAMGWNRQAPGKERELVAAITWSGDSTYYADSVKGRFTISRDNAKNTVYLQMNSLKPEDTAVYYCAAVSYYYSGYIRGYWGQGTQVTVSS | high polyreactivity
QVQLVESGGGLVQAGGSLRLSSAASGITFRTNTMGWYRQAPGKERELVASISSGTRTNYADSVKGRFTISRDNAKNTVYLQMNSLKPEDTAVDYCAAGPPRNRYRNARFDYWGQGTQVTVSS | high polyreactivity
QVQLVESGGGLVQAGGSLRLSSAASGITFYVYAKGRYRQAPGKERELVAAISGSGGNTYYADSVKGRFTISRDNAKNTVYLQMNSLKPEDTPVYYFNADDHSPYYGDLDYWGQGTQVSVSS | low polyreactivity
QVQLVESGGGLVQAGGSLRLSSAASGLIFTRYAMGWYRQATGKERELVAAISYSGTSTYYADSVKGRFTISRDNAKNTVYLQMNSLKPEDTAVYYCAARSSYPLKGYYWGQGTQVTVSS | high polyreactivity
QVQLVESGGGLVQAGGSLRLSSAASGNIFPAYPMGWYRQAPGKERELVAAISKSGGRTYYADSVKGRFTISRDNAKNTVYLQMNSLKPEDTAVYYALLTVLRAVPYSVRYDYWGQGTQVTVSS | high polyreactivity
QVQLVESGGGLVQAGGSLRLSSAASGNIFSDYAMGWNIQAPGKERELVAAISSGGNTNYADSVKGRFTISRDNAKNTVYLQMNSLKPEDTAVYYCAAVYNTTYTLLPEYIYDYWGHGTQVTVSS | low polyreactivity
QVQLVESGGGLVQAGGSLRLSSAASGNIFYTNTMGWYRQAPGKERELVAAITSGGTTYYADSVKGRFTISRDNAKNTVYLQMNSLKPEDTAVYYCAVRSSKWSWIYYYWGQGTQVTVSS | high polyreactivity
QVQLVESGGGLVQAGGSLRLSSAASGRIFDDNAMGWYRQAPGKERELVAAITGPDDSTDYADSVKGRFTISRDNAKNTVYLQMNSLKPEDTAVYYCAKDAGYWYYWNGYWGQGTQVTVSS | high polyreactivity
QVQLVESGGGLVQAGGSLRLSSAASGRIFGRYAMGWYRQAPGKERELVDAITCTGGTTYYADSVKGRFTISRDNAKNTVYLQMNSLKPEDTAVYYCAARQGYGIYGDYYYWGQGTHVTVSS | high polyreactivity
QVQLVESGGGLVQAGGSLRLSSAASGRIFIDYAMGWYRQAPGTDRELVATITSSGGSTYYADSVKGRFTISRDNAKNTVYIQMTSLKPVDTAVYYCNAKERYYFGNYKYGYWGQGTQVTVSS | low polyreactivity
QVQLVESGGGLVQAGGSLRLSSAASGRIFKDNAMGWYRQAPGKERELVAAISSGASTSYADSVKGRFTISRDNAKNTVYLQMNSLKPEDTAVYYCNRGGYLYYPGWLFDYWGQGTQVTVSS | low polyreactivity
QVQLVESGGGLVQAGGSLRLSSAASGRIFNIYAMGWYRQAPGKERELVARITSGGRTNYADSVKGRFTISRDNAKNTVYLQRNSLKPEDTAVYYCAARTYGQRGDYWGQGTQVTVSS | high polyreactivity
QVQLVESGGGLVQAGGSLRLSSAASGRIFPYYAMGWYRQAPGKERELVAAITSSGGSTYYADSVKGRFTISRDTAKNTVYFQMNSLKPEDSAVYYCAGTSPYDDYPYTRGIYAYGYWGQCTQVTVSS | low polyreactivity
QVQLVESGGGLVQAGGSLRLSSAASGRIFQKYAMGWYRPAPGKERELVAAISSGDSTYADSVKGRFTISRDNAKNTVYLQMNSLKPEDTAVYYCAADDRWDYDYWGQGTQGTVSS | low polyreactivity
QVQLVESGGGLVQAGGSLRLSSAASGRIFRGNVMGWYRQAPGKERELVAVIRSSSGRTYYADSVKGRFTISRDNAKNTVYLQMNSLKPEDTAVYDCAAKSVWGQGTQVTVSS | high polyreactivity
QVQLVESGGGLVQAGGSLRLSSAASGRIFRHYAMGWYRQAPGKERELVASITRGDNTYYADSVKGRFTISRDNAKNTVYLQMNSLKPEDSAVYYCAAVFYSYSSASEYYYWGQGTQVTVSS | high polyreactivity
QVQLVESGGGLVQAGGSLRLSSAASGRIFSYNAMGWYRQAPGKERELVASISYSGTSTYYADSVKGRFTISRDNAKNTVYLQMNRLKPEDTAVYYCAALSRRRFGYWGQGTQVTVSS | high polyreactivity
QVQLVESGGGLVQAGGSLRLSSAASGRIFTYYAMGWYRQAPGKERELVATISRRGGSTYYADSVKGRFTISRDNAKNTVYLQMNSLKPEDTAVYYCNRTYYGYDYWGHGTQVTVSS | high polyreactivity
QVQLVESGGGLVQAGGSLRLSSAASGRIFWFNAMGWYRQAPGKEREWVATISSGDSTNYADSVKGRFTISRDNAKNTVYLQMNSLKPDDTAVYYCNARVSHVQVGFDSWGQCTQVTVSS | low polyreactivity
QVQLVESGGGLVQAGGSLRLSSAASGRIFYGYAMGWYRQAPGKERELVAAISWSGGSTYYADSVKWRFTISRDNAKNTVYLQMNSLKPEDTAVYYCARRDRGGYKYDYWGQGTQVTVSS | high polyreactivity
